Data reported in publication doi:10.1101/2023.06.09.544317 (bioRxiv, 2023).

B1: cysteine tRNA ligase from archaea (Q8U227) (enzyme, P. furiosus, UniProt Q8U227 1-477, looked up)
chain: MLKVYNTLTKQKEEFKPLREGEVKMYVCGPTVYDYPHLGHARTYIAFDVIRRYLEHKGYTVLMVMNFTDIDDKIIKRARETGEDPKELAERFIKIFLEDMEALKVKPADIYPRVTDHIDDIIEFIGKLKEKGYAYEGSDGIYFEVKKFPEYGKLSGVKIEDLQKGARVEPGEGKKNPEDFALWKKAKPGEPKWDSPWGEGRPGWHIECSVMSSKYLGESFDIHGGGNDLIFPHHENEIAQSEACFGHEWVKYWLHTGFVMVKGEKMSKSLGNFVTIRELLKRYEPEVIRFFVLQKHYRSPLEYTEEGLQHAKNNLQRLYNTLENIRVALRNAEISYTWGELEFKTYEIIREGKRKFYEAMDDDFNTAEALKAVFEVANAINKYLTEANKPKESILRKALEFFKIVSEVFGVFEDYFREETKEREESEKLIELLVEVRKQLRKEKRYELADMIREELKKLGIQLEDRGSETTWKRIIT
B2: Q8U0N8, uncharacterized protein of unknown function from Pyrococcus furiosus (natural protein, UniProt Q8U0N8 1-392, looked up)
chain: MSESINNITKPKERRDFVVMAGMRKDGTIDFIKVYALNEKLAIEVLEAFLKENNIHPSDFIVIQRGYEDVKDKKAITTRSEEELSAMLGRLGLRLVSNGVLYTDGIDKLYQITAISRELFESLQKEKREIFEDVQEKITFNFSKVDLPEKYVKKLRLLELMEDTIIFNMAELEIPNLLKAIVEGTVLIPRFLEKEDLIIRIFDEELHEYRGSYFDKVLIKPPIIHWDFYLDSLEDFSFKKVEESIYIAPLFLRATGGFLILTEPPEDLVKTLLKLKKRGEVRTILEGKRITIPINFTLIVDTRHPERYAGLKFPIRINLPPLDDETFLKVLETNLGITPPTEIVRIFPPDYKTFLGVELIKNLFEKLKLTEKGKDEVSLLKEAATIITGGTP

Key:
[1] = target: the molecule itself; test: mass photometry
[2] = target: the molecule itself; test: cryo-EM structure

Protein | stoichiometry N [1] | stoichiometry N [2]
B1 | 2 | –
B2 | – | 6
